Target: T1, 125I-TyrA14 human insulin (human, 125I on TyrA14 (specific activity 2200 Ci/mmol))
T1 construct: insulin A chain, human, cut product of proinsulin; insulin B chain, human, cut product of proinsulin; also called ^125I-HI; HI
Test: radioligand binding; saturation binding of the 125I-labelled ligand (0.05-5 nM) to isolated ectodomain-mCherry (300 ng/well) immobilised through its HisTag on 96-well plates by nickel-NTA iBodies with biotin on neutravidin; otherwise as the whole-cell assay; one-site specific binding fit
Settings: both partners purified

Kd: 0.27 nM
B1: isolated ecto-IR-A Arg717Gln conjugated with mCherry (domain or fragment)
chain 1: HLYPGEVCPGMDIRNNLTRLHELENCSVIEGHLQILLMFKTRPEDFRDLSFPKLIMITDYLLLFRVYGLESLKDLFPNLTVIRGSRLFFNYALVIFEMVHLKELGLYNLMNITRGSVRIEKNNELCYLATIDWSRILDSVEDNYIVLNKDDNEECGDICPGTAKGKTNCPATVINGQFVERCWTHSHCQKVCPTICKSHGCTAEGLCCHSECLGNCSQPDDPTKCVACRNFYLDGRCVETCPPPYYHFQDWRCVNFSFCQDLHHKCKNSRRQGCHQYVIHNNKCIPECPSGYTMNSSNLLCTPCLGPCPKVCHLLEGEKTIDSVTSAQELRGCTVINGSLIINIRGGNNLAAELEANLGLIEEISGYLKIRRSYALVSLSFFRKLRLIRGETLEIGNYSFYALDNQNLRQLWDWSKHNLTITQGKLFFHYNPKLCLSEIHKMEEVSGTKGRQERNDIALKTNGDQASCENELLKFSYIRTSFDKILLRWEPYWPPDFRDLLGFMLFYKEAPYQNVTEFDGQDACGSNSWTVVDIDPPLRSNDPKSQNHPGWLMRGLKPWTQYAIFVKTLVTFSDERRTYGAKSDIIYVQTDATNPSVPLDPISVSNSSSQIILKWKPPSDPNGNITHYLVFWERQAEDSELFELDYCLKGLKLPSRTWSPPFESEDSQKHNQSEYEDSAGECCSCPKTDSQILKELEESSFRKTFEDYLHNVVFVPQPS
chain 2: SLGDVGNVTVAVPTVAAFPNTSSTSVPTSPEEHRPFEKVVNKESLVISGLRHFTGYRIELQACNQDTPEERCSVAAYVSARTMPEAKADDIVGPVTHEIFENNVVHLMWQEPKEPNGLIVLYEVSYRRYGDEELHLCVSRKHFALERGCRLRGLSPGNYSVRIRATSLAGNGSWTEPTYFYVTDYLDVPSNIAK

— paper PMC10645074, “Insulin receptor Arg717 and IGF-1 receptor Arg704 play a key role in ligand binding and in receptor activation” (Open Biology, 2023)
